For experiment [1], the target named is fibroblast activation protein (FAP) on FAP-expressing human WI-38 fibroblasts (human) (UniProt Q12884). Put plainly: competitive FACS, WI-38 cells, vs Cy5 tracer m3; D = pIC50 <=6.0.
The target of experiment [2] is human fibroblast activation protein (FAP) on WI-38 fibroblasts (human) (UniProt Q12884). Put plainly: competitive FACS, WI-38 cells, Cy5-labeled peptide as competitor.
Experiment [3] has as its target Recombinant human DPP4 (R&D systems, #9168-SE) (human) (UniProt P27487). Put plainly: cell-based or functional assay.
Experiment [4] has as its target recombinant human PREP (R&D systems, #4308-SE) (human) (UniProt P48147). Put plainly: cell-based or functional assay.

Numbered stars: 1 amine (or outer) side, 2 acyl side, 3 side chain; on linkers, the order of the positions; unused ones are H or OH. Bridge positions count the residues as written; N and C are the ends. Square brackets hold non-standard residues; d marks the D form. Primed or numbered codes have the meaning given here. * marks the point of attachment. tMeBn(DOTA-PP) = 1,3,5-trimethylbenzylidene, two thioethers to Cys, third CH2 bound to one N of piperazine whose other N bears DOTA, O=C(O)CN1CCN(CC(=O)O)CCN(CC(=O)N2CCN(Cc3cc(C[*:1])cc(C[*:2])c3)CC2)CCN(CC(=O)O)CC1; Ttds″ = 1,13-diamino-4,7,10-trioxatridecan-succinamic acid spacer, O=C(CCC(=O)[*:2])NCCCOCCOCCOCCCN[*:1]; 3MeBn″ = 3-methylbenzylidene (meta-xylylene bridge from alpha,alpha'-dibromo-m-xylene); N4Ac = 6-Carboxy-1,4,8,11-tetraazaundecane, an N4-chelator, NCCNCC(CNCCN)C(=O)*; APAc = 2-(4-(Amino)piperidin-1-yl)acetic acid, O=C(CN1CCC(N[*:1])CC1)[*:2]; 3MeBn(3) = 3-methylbenzylidene (m-xylylene), from α,α′-dibromo-m-xylene; Biotin = O=C1N[C@H]2[C@H](CS[C@H]2CCCCC(=O)*)N1; Bip = N[C@@H](Cc1ccc(-c2ccccc2)cc1)C(=O)O; γGlu = O=C(O)[C@H](CCC(=O)[*:2])N[*:1]; Met(O2) = CS(=O)(=O)CC[C@H](N)C(=O)O; mXylylene = c1cc(C[*:1])cc(C[*:2])c1; Nle = CCCC[C@H](N)C(=O)O; Nphe = O=C(O)CNCc1ccccc1; Hexanoyl = CCCCCC(=O)*; Nleu = CC(C)CNCC(=O)O; Mpa = O=C(O)CCS

recombinant human PREP (R&D systems, #4308-SE) (human), sequence (P48147 whole entry): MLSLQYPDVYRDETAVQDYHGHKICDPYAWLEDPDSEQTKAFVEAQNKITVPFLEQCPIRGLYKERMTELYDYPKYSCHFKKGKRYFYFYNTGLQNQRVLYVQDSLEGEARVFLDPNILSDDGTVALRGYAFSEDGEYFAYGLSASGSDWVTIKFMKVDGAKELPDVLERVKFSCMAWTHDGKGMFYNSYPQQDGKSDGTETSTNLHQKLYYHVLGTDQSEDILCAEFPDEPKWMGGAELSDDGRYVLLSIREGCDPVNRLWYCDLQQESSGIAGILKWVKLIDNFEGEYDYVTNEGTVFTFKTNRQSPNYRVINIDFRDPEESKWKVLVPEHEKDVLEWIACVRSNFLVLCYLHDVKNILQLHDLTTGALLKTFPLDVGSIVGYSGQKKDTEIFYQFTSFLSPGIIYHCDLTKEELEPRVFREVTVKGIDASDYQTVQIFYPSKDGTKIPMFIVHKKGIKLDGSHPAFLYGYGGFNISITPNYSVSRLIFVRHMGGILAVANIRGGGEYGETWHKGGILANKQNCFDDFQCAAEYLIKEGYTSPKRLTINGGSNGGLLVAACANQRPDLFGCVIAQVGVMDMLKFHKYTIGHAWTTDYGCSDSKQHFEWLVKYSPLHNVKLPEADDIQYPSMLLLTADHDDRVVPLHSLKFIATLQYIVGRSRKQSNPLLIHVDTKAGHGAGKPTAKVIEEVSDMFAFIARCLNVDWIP
Recombinant human DPP4 (R&D systems, #9168-SE) (human), sequence (P27487 29-766 limits assumed): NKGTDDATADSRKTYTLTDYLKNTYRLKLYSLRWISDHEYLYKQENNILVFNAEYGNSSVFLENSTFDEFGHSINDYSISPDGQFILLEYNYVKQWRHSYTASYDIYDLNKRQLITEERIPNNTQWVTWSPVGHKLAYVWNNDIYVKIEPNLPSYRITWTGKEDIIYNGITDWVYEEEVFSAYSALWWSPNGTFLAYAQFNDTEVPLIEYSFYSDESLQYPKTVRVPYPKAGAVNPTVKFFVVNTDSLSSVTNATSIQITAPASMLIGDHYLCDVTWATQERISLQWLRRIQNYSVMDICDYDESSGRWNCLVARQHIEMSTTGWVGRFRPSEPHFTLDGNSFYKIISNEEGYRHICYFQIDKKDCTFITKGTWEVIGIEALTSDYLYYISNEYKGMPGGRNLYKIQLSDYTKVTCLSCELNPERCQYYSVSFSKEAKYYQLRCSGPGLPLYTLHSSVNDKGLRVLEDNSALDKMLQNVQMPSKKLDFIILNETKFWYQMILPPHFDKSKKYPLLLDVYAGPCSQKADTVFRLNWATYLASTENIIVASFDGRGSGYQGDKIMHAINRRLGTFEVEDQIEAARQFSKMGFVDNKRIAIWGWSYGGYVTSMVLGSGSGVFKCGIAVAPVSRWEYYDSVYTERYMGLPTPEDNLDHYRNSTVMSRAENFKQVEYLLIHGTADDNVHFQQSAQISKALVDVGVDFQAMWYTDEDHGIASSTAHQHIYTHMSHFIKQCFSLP

B1: Hex-[Cys(3MeBn)-Pro-Pro-Thr-Glu-Nphe-Cys]-NH2 (peptide)
peptide: Hexanoyl-CPPTE[Nphe]C-NH2
modifications: linker 1-7 via mXylylene
SMILES: CCCCCC(=O)N[C@H]1CSCc2cccc(c2)CSC[C@@H](C(N)=O)NC(=O)CN(Cc2ccccc2)C(=O)[C@H](CCC(=O)O)NC(=O)[C@H]([C@@H](C)O)NC(=O)[C@@H]2CCCN2C(=O)[C@@H]2CCCN2C1=O
For the molecule B1, the pIC50 Category (FACS) in experiment [1] was under 6 pIC50.

B2: Hex-[Cys(3MeBn)-Pro-Pro-Thr-Glu-Bip-Cys]-NH2 (peptide)
peptide: Hexanoyl-CPPTE[Bip]C-NH2
modifications: linker 1-7 via mXylylene
SMILES: CCCCCC(=O)N[C@H]1CSCc2cccc(c2)CSC[C@@H](C(N)=O)NC(=O)[C@H](Cc2ccc(-c3ccccc3)cc2)NC(=O)[C@H](CCC(=O)O)NC(=O)[C@H]([C@@H](C)O)NC(=O)[C@@H]2CCCN2C(=O)[C@@H]2CCCN2C1=O
In the case of B2, the pIC50 Category (FACS) in experiment [1] was under 6 pIC50.

B3: N4Ac-gGlu-Nle-[Cys-(3MeBn)-Pro-Pro-Thr-Glu-Phe-Cys]-OH (peptide)
peptide: N4Ac-[γGlu][Nle]CPPTEFC-OH
modifications: linker 3-9 via mXylylene
SMILES: CCCC[C@H](NC(=O)CC[C@H](NC(=O)C(CNCCN)CNCCN)C(=O)O)C(=O)N[C@H]1CSCc2cccc(c2)CSC[C@@H](C(=O)O)NC(=O)[C@H](Cc2ccccc2)NC(=O)[C@H](CCC(=O)O)NC(=O)[C@H]([C@@H](C)O)NC(=O)[C@@H]2CCCN2C(=O)[C@@H]2CCCN2C1=O
B3: in experiment [2], the pIC50 Category (FACS) is under 6 pIC50.

B4: Hex-[Cys(3MeBn)-Pro-Pro-Thr-Ala-Phe-Cys]-NH2 (peptide)
peptide: Hexanoyl-CPPTAFC-NH2
modifications: linker 1-7 via mXylylene
SMILES: CCCCCC(=O)N[C@H]1CSCc2cccc(c2)CSC[C@@H](C(N)=O)NC(=O)[C@H](Cc2ccccc2)NC(=O)[C@H](C)NC(=O)[C@H]([C@@H](C)O)NC(=O)[C@@H]2CCCN2C(=O)[C@@H]2CCCN2C1=O
Take B4: the pIC50 Category (FACS) in experiment [1] was under 6 pIC50.

B5: Hex-[Cys(3MeBn)-Nleu-Pro-Thr-Gln-Phe-Cys]-NH2 (peptide)
peptide: Hexanoyl-C[Nleu]PTQFC-NH2
modifications: linker 1-7 via mXylylene
SMILES: CCCCCC(=O)N[C@H]1CSCc2cccc(c2)CSC[C@@H](C(N)=O)NC(=O)[C@H](Cc2ccccc2)NC(=O)[C@H](CCC(N)=O)NC(=O)[C@H]([C@@H](C)O)NC(=O)[C@@H]2CCCN2C(=O)CN(CC(C)C)C1=O
In turn, B5 displayed a pIC50 Category (FACS) in experiment [2] of under 6 pIC50. In the case of Hexanoyl-CPPTEFC-NH2 (linker 1-7 via 3MeBn″) [Hex-[Cys(3MeBn)-Pro-Pro-Thr-Glu-Phe-Cys]-NH2], the pIC50 (DPP4) in experiment [3] was under 6 pIC50. For the same molecule, in experiment [4], the pIC50 (PREP) is under 6 pIC50.

B6: [3MeBn-Spa-Pro-Pro-Thr-Gln-Phe-Cys]-Asp-NH2 (peptide)
peptide: [Mpa]PPTQFCD-NH2
modifications: linker 1-7 via mXylylene
SMILES: C[C@@H](O)[C@@H]1NC(=O)[C@@H]2CCCN2C(=O)[C@@H]2CCCN2C(=O)CCSCc2cccc(c2)CSC[C@@H](C(=O)N[C@@H](CC(=O)O)C(N)=O)NC(=O)[C@H](Cc2ccccc2)NC(=O)[C@H](CCC(N)=O)NC1=O
Regarding B6, in experiment [3], the pIC50 (DPP4) was under 6 pIC50. Further, the pIC50 (PREP) in experiment [4] is under 6 pIC50.

B7: Hex-[Cys(tMeBn(DOTA-PP))-Pro-Thr-Pro-Phe-Gln-Cys]-Asp-NH2 (peptide)
peptide: Hexanoyl-CPTPFQCD-NH2
modifications: linker 1-7 via tMeBn(DOTA-PP)
SMILES: CCCCCC(=O)N[C@H]1CSCc2cc(cc(CN3CCN(C(=O)CN4CCN(CC(=O)O)CCN(CC(=O)O)CCN(CC(=O)O)CC4)CC3)c2)CSC[C@@H](C(=O)N[C@@H](CC(=O)O)C(N)=O)NC(=O)[C@H](CCC(N)=O)NC(=O)[C@H](Cc2ccccc2)NC(=O)[C@@H]2CCCN2C(=O)[C@H]([C@@H](C)O)NC(=O)[C@@H]2CCCN2C1=O
The molecule B7 came in with a pIC50 Category (FACS) in experiment [2] of under 6 pIC50.

B8: H-Met-[Cys(3MeBn)-Pro-Pro-Thr-Glu-Phe-Cys]-Asp-His-Phe-Arg-Asp-Ttds-Lys(Bio)-NH2 (peptide)
peptide: H-MCPPTEFCDHFRD[Ttds″]K(Biotin)-NH2
modifications: linker 2-8 via mXylylene
SMILES: CSCC[C@H](N)C(=O)N[C@H]1CSCc2cccc(c2)CSC[C@@H](C(=O)N[C@@H](CC(=O)O)C(=O)N[C@@H](Cc2c[nH]cn2)C(=O)N[C@@H](Cc2ccccc2)C(=O)N[C@@H](CCCNC(=N)N)C(=O)N[C@@H](CC(=O)O)C(=O)NCCCOCCOCCOCCCNC(=O)CCC(=O)N[C@@H](CCCCNC(=O)CCCC[C@@H]2SC[C@@H]3NC(=O)N[C@@H]32)C(N)=O)NC(=O)[C@H](Cc2ccccc2)NC(=O)[C@H](CCC(=O)O)NC(=O)[C@H]([C@@H](C)O)NC(=O)[C@@H]2CCCN2C(=O)[C@@H]2CCCN2C1=O
B8: the pIC50 (DPP4) in experiment [3] is under 6 pIC50. The pIC50 (PREP) in experiment [4] was under 6 pIC50.

B9: Hex-[Cys(3MeBn)-Pro-Pro-Thr-Moo-Phe-Cys]-NH2 (peptide)
peptide: Hexanoyl-CPPT[Met(O2)]FC-NH2
modifications: linker 1-7 via mXylylene
SMILES: CCCCCC(=O)N[C@H]1CSCc2cccc(c2)CSC[C@@H](C(N)=O)NC(=O)[C@H](Cc2ccccc2)NC(=O)[C@H](CCS(C)(=O)=O)NC(=O)[C@H]([C@@H](C)O)NC(=O)[C@@H]2CCCN2C(=O)[C@@H]2CCCN2C1=O
As to B9, the pIC50 Category (FACS) in experiment [1] was under 6 pIC50. In experiment [2], N4Ac-[APAc][Nle]CPPTEFC-OH (linker 3-9 via 3MeBn(3)) [N4Ac-APAc-Nle-[Cys-(3MeBn)-Pro-Pro-Thr-Glu-Phe-Cys]-OH] had a pIC50 Category (FACS) of under 6 pIC50.

For the origin of these results see US20230212549A1, “COMPOUNDS COMPRISING A […] LIGAND AND USE THEREOF” (priority 2021, published 2023).
